{
  "source": "paper PMC9889268",
  "target": "wild-type ClbP (Escherichia coli CFT073) (UniProt Q0P7K6)",
  "assay": "cryo-EM structure; single-particle cryo-EM of detergent-solubilised ClbP; 10 mM HEPES pH 7.3, 200 mM NaCl, 0.06% GDN; 3.5 mg/ml; C2 symmetry imposed",
  "data": [
    {"substance": "wild-type ClbP (from UniProt Q0P7K6 1-504) (enzyme)", "values": [
      {"measurement": "stoichiometry N", "result": 2}
    ]}
  ]
}
